Laboratory results as given in US7919104B2, “Functional epitopes of Streptococcus pneumoniae PsaA antigen and uses thereof” (priority 2005, dated 2011).
Values joined by “and” are separate entries in the source; they are usually repeats but may differ in a detail not shown here. Identical values can stand only once.

Columns and labels:
Format in all cases: cell-based, human
Detroit 562 cells [1] = assay: Adherence of rPsaA- or peptide-coated fluospheres (beads) to Detroit 562 cells; settings: for mean adherence of coated fluospheres (mean FU±SE): 3,100±500 fluospheres per well, 2 hour incubation; for mean adherence signal (n=6): 2600 fluospheres/well; for mean adherence (% CV): batch 6, dilution 1:100, 2,600 fluospheres
Procedure: (§1) Carboxylate-modified fluorospheres (Molecular Probes™, […]) coated with either recombinant PsaA (rPsaA) or PsaA synthetic peptide (P4) were evaluated for their adherence to Detroit 562 NP cells. Four different batches of PsaA beads were generated by varying the concentration of the protein solution used to coat the beads (0.9 mg/ml, 0.53 mg/ml, 5.3 μg/ml and 0.53 μg/ml). P4 and Glycine control beads were generated by using a peptide solution (0.9 mg/ml). Protein concentrations were confirmed by the Bradford test (Sigma). PsaA and peptide beads were compared at similar inocula (1640±210 beads per well) in adherence and adherence competition assays (measured as mean fluorescent units (FU±SE)).
Recombinant PsaA protein or synthetic peptides were covalently bound to carboxylate-modified FluoSpheres (Molecular Probes, Eugene, Oreg.) (505/515 nm range, yellow, 1 μm in diameter). […] The 2% fluosphere stock was vortexed for 2 minutes at full speed. A 250-μl aliquot was sonicated for 5 minutes to break clumps. The sonicated fluospheres were washed 3 times by centrifugation at 10,000 rpm for 10 minutes in 250 μl MES buffer, pH 6.0 (Molecular Probes). The negative charge in the carboxylate-modified fluospheres was activated by adding 50 μl of EDAC solution (100 mg/ml, Molecular Probes) to the washed fluospheres resuspended in 200 μl MES. The fluospheres were incubated for 30 minutes RT with gentle rotation. A 250-μl volume of rPsaA (1 mg/ml) or peptide (2 mg/ml) resuspended in MES buffer was added to each fluosphere pellet. Suboptimal concentrations of rPsaA (900, 530, 5.3 and 0.53 μg/ml) were also used to generate partially coated fluospheres. Peptides were dissolved as 1 mg in 50 μl of 10% acetic acid followed by addition of 450 μl of MES buffer, pH 6.0. The 500-μl fluosphere suspension was incubated in the dark over night at room temperature with horizontal rotation (150 rpm). The remaining reactive sites were blocked by addition of a 50-μl volume of 1 M solution of glycine, followed by a-30-minute incubation at room temperature with horizontal rotation. The fluosphere suspension was then washed with 500 μl PBS, 50 mM, pH 7.2-7.4 three times by centrifugation at 10,000 rpm for 10 minutes. The first supernatant of the first wash was saved for protein determinations using the microtiter microdilution method of Bradford (Bio-Rad Laboratories, Calif.). The labeled fluosphere pellet was resuspended in 500 μl of PBS, 50 mM, pH 7.2-7.4. Labeled fluospheres were stored in the dark in 100-μl aliquots at 4° C. for up to 4 months. The peptides were stored in powder form at 4° C. under Dryerite desiccant. The resuspended peptides were stored at 4° C. for 6 weeks and for long term storage at −70° C. Fluospheres were counted by limiting dilution using a fluorometer (FLX-600, BioTek) with 485/520 nm excitation/emission wavelength and comparison to a calibration curve previously generated against hemacytometer counts.
Confluent monolayers of Detroit 562 cells grown in 96-well tissue culture plates for 6 days were washed once with 130 μl/well of PBS buffer+0.5% BSA (Sigma cat #A2153, Fraction V purified by alcohol precipitation). The entire outer perimeter of the microtiter plate was not used for adherence assays due to edge effect and lack of confluent growth in these wells. An 80-μl volume per well of PBS buffer+1% BSA and 20 μl per well of diluted fluosphere suspension (to yield ˜3100±500 fluospheres in a 20-μl volume) were added to the washed monolayers. The diluted fluosphere suspension was sonicated for 3 minutes prior to addition to the center of the wells. […] The sides of the plates were then tapped gently to mix. […] Following incubation, plates were washed 5 times with 130 μL/well of PBS+0.5% BSA. The liquid was removed after each wash with a multi-channel aspirator (Costar) and moderate vacuum. The plate was allowed to dry before reading in the fluorometer (485/520 nm). […]

Detroit 562 cells [2] = assay: Homologous competitive inhibition of adherence of rPsaA- or peptide-coated fluospheres to Detroit 562 cells; settings: for percent reduction in adherence of P4-coated beads: ~1,640 beads per well
Procedure: as §1
(§2) Homologous competitive inhibitions with 0.5 to 10 μg per well of rPsaA protein or 5 to 20 μg per well of each peptide were performed to determine the specificity of the adherence for rPsaA-coated fluospheres or for each of the three peptide-coated fluospheres. Heterologous competitive inhibitions with each peptide (10 μg per well) were performed to determine which peptide blocked the adherence of whole PsaA-coated fluospheres to the Detroit 562 cells. Absorption of PsaA-specific antibodies was performed by incubation (2 hours at ambient room temperature with rotation, 100 rpm) of 500 μl (1:8 dilution) of the serum 7051 with nitrocellulose strips (2.5×0.5 cm), previously impregnated with rPsaA protein (1.8 mg/ml) and allowed to dry at 37° C. for 1 hour. Strips were replaced every 2 hours for a total of 3 changes. All antibody absorptions were performed in PBS (10 mM, pH 7.2) supplemented with 1% (weight/volume) BSA as a non-specific blocker. Immunoglobulin G (IgG) concentrations (μg/ml) were measured as previously described (Tharpe, Romero-Steiner) after each absorption step to monitor the decline of anti-PsaA antibodies.

Detroit 562 cells [3] = assay: Competitive inhibition of adherence of rPsaA-coated fluospheres to Detroit 562 cells; settings: for percent reduction in adherence of rPsaA-coated beads: rPsaA-coated beads 0.9 mg/ml batch, ~1,640 beads per well
Procedure: as §1, §2

[4] = homologous competitor 5.0 μg/well
[5] = homologous competitor 10 μg/well

LFVESSVKRRPMKTVSQDTNIPIYAQIF [P4, non-branched synthetic peptide, PsaA amino acid residues 251 to 278 with DD changed to KR]
mean adherence of coated fluospheres (mean FU±SE) (Detroit 562 cells [1]): 20,317±448 FU | adherence of P4-coated beads (FU±SE) (Detroit 562 cells [1]; beads coated with 0.9 mg/ml peptide solution, 1640±210 beads per well): 19,340 FU | percent reduction in adherence of P4-coated beads (Detroit 562 cells [2]; competitor 5.0 μg/well): 89% and 89.4% | percent reduction in adherence of P4-coated beads (Detroit 562 cells [2]; competitor 10 μg/well): 88% and 87.6% | percent reduction in adherence of P4-coated beads (Detroit 562 cells [2]; competitor 20 μg/well): 89% and 88.9% | percent reduction in adherence of homologous coated fluospheres (Detroit 562 cells [2]; [4]): 89.4% | percent reduction in adherence of homologous coated fluospheres (Detroit 562 cells [2]; [5]): 87.6% | percent reduction in adherence of homologous coated fluospheres (Detroit 562 cells [2]; homologous competitor 20 μg/well): 88.9% | inhibition of the binding of PsaA protein to Detroit 562 cells (Detroit 562 cells [3]): ≥ 95% | percent reduction in adherence of rPsaA-coated beads (Detroit 562 cells [3]; competitor 5.0 μg/well): 23% and 18.5% | percent reduction in adherence of rPsaA-coated beads (Detroit 562 cells [3]; competitor 10 μg/well): 57.6% | percent reduction in adherence of rPsaA-coated beads (Detroit 562 cells [3]; competitor 20 μg/well): 95% and 95.9% | inhibition of rPsaA-fluosphere adherence, heterologous competition (Detroit 562 cells [3]; peptide 10 μg/well): 57.6% | inhibition of rPsaA-fluosphere adherence, heterologous competition (Detroit 562 cells [3]; peptide 20 μg/well (6.2×10^−2 mM)): 95.9%

B1: rPsaA: purified recombinant pneumococcal surface adhesin A, non-lipidated, donated by Aventis-Pasteur (protein)
chain: CASGKKDTTSGQKLKVVATNSIIADITKNIAGDKIDLHSIVPIGQDPHEYEPLPEDVKKTSEADLIFYNGINLETGGNAWFTKLVENAKKTENKDYFAVSDGVDVIYLEGQNEKGKEDPHAWLNLENGIIFAKNIAKQLSAKDPNNKEFYEKNLKEYTDKLDKLDKESKDKFNKIPAEKKLIVTSEGAFKYFSKAYGVPSAYIWEINTEEEGTPEQIKTLVEKLRQTKVPSLFVESSVDDRPMKTVSQDTNIPIYAQIFTDSIAEQGKEGDSYYSMMKYNLDKIAEGLAK
mean adherence signal (n=6) (Detroit 562 cells [1]; 20 min incubation): 2,315 FU | mean adherence signal (n=6) (Detroit 562 cells [1]; 140 min incubation (plateau starts)): 16,597 FU | mean adherence signal (n=6) (Detroit 562 cells [1]; 180 min incubation): 17,498 FU | mean adherence of coated fluospheres (mean FU±SE) (Detroit 562 cells [1]): 44,195±2,648 FU | mean adherence (% CV) (Detroit 562 cells [1]; day 1 after labeling): 30,105 FU | mean adherence (% CV) (Detroit 562 cells [1]; day 60 after labeling): 30,595 FU | adherence of PsaA beads (FU±SE) (Detroit 562 cells [1]; beads coated with 0.53 μg/ml rPsaA, 1640±210 beads per well): 5,892 FU | adherence of PsaA beads (FU±SE) (Detroit 562 cells [1]; beads coated with 5.3 μg/ml rPsaA, 1640±210 beads per well): 12,788 FU | adherence of PsaA beads (FU±SE) (Detroit 562 cells [1]; beads coated with 0.53 mg/ml rPsaA, 1640±210 beads per well): 16,748 FU | adherence of PsaA beads (FU±SE) (Detroit 562 cells [1]; beads coated with 0.9 mg/ml rPsaA, 1640±210 beads per well): 47,875 FU | reduction of adherence of rPsaA fluospheres by whole recombinant protein (Detroit 562 cells [2]; 0.5 to 10 μg/well): unable to significantly reduce | reduction of adherence of rPsaA-coated fluospheres (Detroit 562 cells [2]; additional concentrations 0.125 to 10.0 μg/well vs 3 μg/well): did not result in any further reduction | percent reduction in adherence of homologous coated fluospheres (Detroit 562 cells [2]; homologous competitor 0.5 μg/well): −5.2% | percent reduction in adherence of homologous coated fluospheres (Detroit 562 cells [2]; homologous competitor 1.0 μg/well): 9.8% | percent reduction in adherence of homologous coated fluospheres (Detroit 562 cells [2]; homologous competitor 2.0 μg/well): 17.0% | percent reduction in adherence of homologous coated fluospheres (Detroit 562 cells [2]; [4]): 13.7% | percent reduction in adherence of homologous coated fluospheres (Detroit 562 cells [2]; [5]): 11.4% | inhibition of the adherence of PsaA-coated fluospheres, cold chase (Detroit 562 cells [3]; non-fluorescent spheres coated with PsaA protein): up to 31%
